For orientation: stoichiometry N means the number of molecules, sites or subunits per partner or assembly. For orientation: Kd means the equilibrium constant for the complex coming apart.

Data set [1] deals with the molecule itself. As to the kind of experiment: static light scattering; Ndel1^1–201 alone in solution; data not included.
The target in data set [2] is T1, recombinant p600^4480–5183 (human, UniProt Q5T4S7 4480-5183).
T1 construct: Elutes mostly as a monomer (~75 kDa) in SEC; also called C-terminal portion of p600; source: E. coli BL21-Rosetta, purified (glutathione sepharose, PreScission cleavage, Resource Q)
T1 sequence (Q5T4S7 4480-5183): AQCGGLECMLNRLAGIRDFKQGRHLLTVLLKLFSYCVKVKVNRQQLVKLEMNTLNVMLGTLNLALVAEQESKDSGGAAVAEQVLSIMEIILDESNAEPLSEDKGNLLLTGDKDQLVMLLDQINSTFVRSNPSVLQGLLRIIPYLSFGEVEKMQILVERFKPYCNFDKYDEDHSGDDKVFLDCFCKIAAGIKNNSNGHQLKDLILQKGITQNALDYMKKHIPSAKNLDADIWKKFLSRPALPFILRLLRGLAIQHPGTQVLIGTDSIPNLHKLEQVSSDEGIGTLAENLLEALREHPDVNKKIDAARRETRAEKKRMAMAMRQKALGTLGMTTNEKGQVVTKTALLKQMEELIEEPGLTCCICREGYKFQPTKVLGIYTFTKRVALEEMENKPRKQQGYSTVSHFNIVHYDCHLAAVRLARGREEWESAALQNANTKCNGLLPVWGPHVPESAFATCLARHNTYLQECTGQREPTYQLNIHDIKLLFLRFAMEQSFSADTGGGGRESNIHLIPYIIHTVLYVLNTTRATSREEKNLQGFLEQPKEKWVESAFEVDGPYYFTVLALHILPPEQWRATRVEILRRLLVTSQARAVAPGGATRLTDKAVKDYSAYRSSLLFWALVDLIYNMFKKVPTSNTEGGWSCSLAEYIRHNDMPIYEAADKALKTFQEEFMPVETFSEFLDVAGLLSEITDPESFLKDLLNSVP
The experiment in a line: SEC; analytical SEC, Superdex 200 5/150, 4°C, 10 mM HEPES pH 7.5, 0.15 M NaCl, 1 mM DTT; proteins alone or mixed at 50 µM and incubated 30 min on ice; fractions analysed by SDS-PAGE. Conditions: both partners purified. (In general: Size exclusion chromatography separates by hydrodynamic size, large species first.)

B1: Ndel1^1–201 (coiled-coil region of Ndel1) (domain or fragment, UniProt Q9GZM8 1-201, looked up)
chain: MDGEDIPDFSSLKEETAYWKELSLKYKQSFQEARDELVEFQEGSRELEAELEAQLVQAEQRNRDLQADNQRLKYEVEALKEKLEHQYAQSYKQVSVLEDDLSQTRAIKEQLHKYVRELEQANDDLERAKRATIVSLEDFEQRLNQAIERNAFLESELDEKESLLVSVQRLKDEARDLRQELAVRERQQEVTRKSAPSSPTL
notes: Dimeric in solution by static light scattering (data not included); also called N-terminal coiled-coil domain of Ndel1; source: E. coli BL21-Rosetta, purified (Ni-NTA, ion exchange)
B1: the “stoichiometry N” value in data set [1] stood at 2. Besides, in data set [2], the Kd fell in the range of 30 to 50 µM.

The values above are taken from publication PMC4058081, “p600 regulates spindle orientation in apical neural progenitors and contributes to neurogenesis in the developing neocortex” (Biology Open, 2014).
